Assay results as given in US20070219354.

Target: T1, coumarin-CO-REVNFEVEFR
T1 chain: REVNFEVEFR

B1: BACE 1, soluble (transmembrane domain and cytoplasmic extension excluded) human protein produced in a baculovirus expression system (protein)
chain: TQHGIRLPLRSGLGGAPLGLRLPRETDEEPEEPGRRGSFVEMVDNLRGKSGQGYYVEMTVGSPPQTLNILVDTGSSNFAVGAAPHPFLHRYYQRQLSSTYRDLRKGVYVPYTQGKWEGELGTDLVSIPHGPNVTVRANIAAITESDKFFINGSNWEGILGLAYAEIARPDDSLEPFFDSLVKQTHVPNLFSLQLCGAGFPLNQSEVLASVGGSMIIGGIDHSLYTGSLWYTPIRREWYYEVIIVRVEINGQDLKMDCKEYNYDKSIVDSGTTNLRLPKKVFEAAVKSIKAASSTEKFPDGFWLGEQLVCWQAGTTPWNIFPVISLYLMGEVTNQSFRITILPQQYLRPVEDVATSQDDCYKFAISQSSTGTVMGAVIMEGFYVVFDRARKRIGFAVSACHVHDEFRTAAVEGPFVTLDMEDCGYNIPQTDESTLMT
- substrate processed (end point HPLC assay, 2 nM enzyme, 1.0 µM substrate, 30 min): less than 10% of substrate is processed by BACE 1
